T1: MinD(R3E) (Escherichia coli, UniProt P0AEZ3 1-270, R3E)
T1 sequence (looked up): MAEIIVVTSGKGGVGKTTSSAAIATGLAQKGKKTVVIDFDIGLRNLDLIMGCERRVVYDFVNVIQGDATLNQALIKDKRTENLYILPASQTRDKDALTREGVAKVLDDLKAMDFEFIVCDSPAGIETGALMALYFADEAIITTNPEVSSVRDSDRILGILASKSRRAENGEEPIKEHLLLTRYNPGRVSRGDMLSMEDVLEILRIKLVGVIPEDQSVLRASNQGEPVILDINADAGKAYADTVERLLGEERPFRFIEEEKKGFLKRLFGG


How the values were obtained:
ClpX = ClpX (Escherichia coli, UniProt P0A6H1 1-424); experiment: negative-stain transmission electron microscopy
MinD(R3E) = target: T1, MinD(R3E); experiment: 90° light scatter

| binding result (ClpX) | binding result (MinD(R3E)) | Binder |
| --- | --- | --- |
| binds |  | ClpP (enzyme) not shown |
|  | binds | MinC (natural protein, Escherichia coli, UniProt P18196 1-231, looked up) MSNTPIELKGSSFTLSVVHLHEAEPKVIHQALEDKIAQAPAFLKHAPVVLNVSALEDPVNWSAMHKAVSATGLRVIGVSGCKDAQLKAEIEKMGLPILTEGKEKAPRPAPTPQAPAQNTTPVTKTRLIDTPVRSGQRIYAPQCDLIVTSHVSAGAELIADGNIHVYGMMRGRALAGASGDRETQIFCTNLMAELVSIAGEYWLSDQIPAEFYGKAARLQLVENALTVQPLN |
